Molecular target: UB (ubiquitin)
Test: SEC-MALS
Settings: reference: unphosphorylated PARKIN; sites S65

other: mass increase on p-UB addition: same; reference ~7
Substance: PARKIN (from UniProt O60260) p-PARKIN
